Assay [1] has as its target T1, cynomolgus monkey FcRn (cynomolgus monkey, UniProt Q8SPV9 24-297; Q8SPW0 21-119, limits assumed).
T1 construct: also called Cynomolgus FcRn
Nature of the assay: SPR competition pH 7.4. How it is done: (§1) Binding of variant Fc-fragments to human and cynomolgus monkey FcRn was tested using a BIAcore® T100 analysis system (GE Healthcare Bio-Sciences AB Private Limited Liability Company, Uppsala, Sweden) at both pH 5.5 and pH 7.4. The test consisted of incubating various concentrations of the variant Fc-fragments or control Fc-fragments with a fixed amount of human or cynomolgus monkey FcRn under binding conditions and subsequently measuring the amount of free, unbound FcRn in these mixtures by binding to a surface (in a flow cell of a CM5 (Biacore) chip) on which an Fc-fragment was immobilized. […] Thus, the amount of unbound FcRn in the mixture was quantitatively ascertained by surface plasmon resonance through use of the BIAcore® T100 analysis system. […] Initially, a group of 23 variant-Fc-fragments (Fc-5-1 being considered a control) identified in the experiments described above were tested for binding to human FcRn.
(§2) As positive controls, 10 mM human and cynomolgus monkey FcRn were each incubated in the same solution, for the same time, and at the same temperature described immediately above, but without an added Fc-fragment.

Assay [2] deals with T2, human neonatal Fc receptor (hFcRn) (human, UniProt P55899 24-290; P61769 21-119).
T2 construct: Biotinylated in the ELISA, Octet and yeast assays; also called human FcRn; huFcRn
T2 sequence (P55899 24-290 limits assumed, chain 1 of 2): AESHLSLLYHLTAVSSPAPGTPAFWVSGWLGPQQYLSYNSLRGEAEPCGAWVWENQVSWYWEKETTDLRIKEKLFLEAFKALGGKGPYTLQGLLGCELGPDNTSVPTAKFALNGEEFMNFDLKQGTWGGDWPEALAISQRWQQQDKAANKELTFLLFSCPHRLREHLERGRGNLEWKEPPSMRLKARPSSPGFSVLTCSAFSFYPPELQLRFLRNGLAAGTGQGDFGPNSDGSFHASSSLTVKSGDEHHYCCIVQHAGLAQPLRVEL
T2 sequence (P61769 21-119 limits assumed, chain 2 of 2): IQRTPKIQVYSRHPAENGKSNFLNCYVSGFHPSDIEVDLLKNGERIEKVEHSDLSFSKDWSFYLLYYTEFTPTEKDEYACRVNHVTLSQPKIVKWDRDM
Nature of the assay: SPR competition pH 7.4. How it is done:
as §1, §2

Assay [3] deals with T1, cynomolgus monkey FcRn. Nature of the assay: SPR competition pH 5.5.
For assay [4], the target named is T2, human neonatal Fc receptor (hFcRn). Nature of the assay: SPR competition pH 5.5.
Assay [5] addresses T1, cynomolgus monkey FcRn. In words: SPR competition pH 7.4. The source holds these as a separate data set.
The target in assay [6] is T2, human neonatal Fc receptor (hFcRn). In words: SPR competition pH 7.4. The source holds these as a separate data set.
For assay [7], the target named is T1, cynomolgus monkey FcRn. In words: SPR competition pH 5.5. This is another data set of the same source.
The target of assay [8] is T2, human neonatal Fc receptor (hFcRn). In words: SPR competition pH 5.5. This is another data set of the same source.

T1 sequence (Q8SPV9 24-297 limits assumed, chain 1 of 2): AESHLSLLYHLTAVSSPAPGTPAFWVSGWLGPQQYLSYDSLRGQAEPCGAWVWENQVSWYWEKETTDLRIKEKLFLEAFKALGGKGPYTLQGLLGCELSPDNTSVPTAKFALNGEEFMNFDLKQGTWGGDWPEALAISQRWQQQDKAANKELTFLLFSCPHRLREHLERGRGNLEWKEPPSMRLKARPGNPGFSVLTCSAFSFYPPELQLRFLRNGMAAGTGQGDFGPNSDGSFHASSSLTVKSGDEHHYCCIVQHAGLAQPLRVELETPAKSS
T1 sequence (Q8SPW0 21-119 limits assumed, chain 2 of 2): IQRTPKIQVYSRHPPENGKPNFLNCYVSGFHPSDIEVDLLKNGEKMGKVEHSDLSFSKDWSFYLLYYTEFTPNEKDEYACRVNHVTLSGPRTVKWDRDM

B1: variant Fc-fragment Fc-5-1 (other)
chain: EPKSCDKTHTCPPCPAPELLGGPSVFLFPPKPKDTLMISRTPEVTCVVVDVSHEDPEVKFNWYVDGVEVHNAKTKPREEQYNSTYRVVSVLTVLHQDWLNGKEYKCKVSNKALPAPIEKTISKAKGQPREPQVYTLPPSRDELTKNQVSLTCLVKGFYPSDIAVEWESNGGCGMPIEFCGGGQPENNYKTTPPVLDSDGSFFLYSKLTVDKSRWQQGNVFSCSVMHEALHNHYTQKSLSLSPGK
notes: library L5 isolate; also called variant 5-1
With B1, the EC50 in assay [1] came to 42 nM; in assay [2], 45 nM; in assay [3] it was 2.3 nM; in assay [4] it was 2.6 nM.

B2: variant Fc-fragment Fc-5-106-M4L (other)
chain: EPKSCDKTHTCPPCPAPELLGGPSVFLFPPKPKDTLMISRTPEVTCVVVDVSHEDPEVKFNWYVDGVEVHNAKTKPREEQYNSTYRVVSVLTVLHQDWLNGKEYKCKVSNKALPAPIEKTISKAKGQPREPQVYTLPPSRDELTKNQVSLTCLVKGFYPSDIAVEWESNGGCVFNLFNCGGGQPENNYKTTPPVLDSDGSFFLYSKLTVDKSRWQQGNVFSCSVMHEALHNHYTQKSLSLSPGK
With B2, the EC50 in assay [5] worked out at 710 nM; in assay [6], 650 nM; in assay [7], 2.8 nM; in assay [8], 2.3 nM.

What is called EC50 is the concentration at which the effect is half-maximal.

(Values after patent US20140356358A1 (Amgen, published 2014).)
